The values below come from US20140030278A1.

Assay [1] addresses Recombinant human TNF-alpha (human) (UniProt P01375). Description: ELISA of unbound rhTNF-alpha after pre-incubation; preparation 1; printed as 7.948e-009 g/ml. To be noted: Fc fusion. Background: An ELISA detects its analyte on a solid surface through an enzyme-linked reagent.
Assay [2] shares this target. Description: ELISA of unbound rhTNF-alpha after pre-incubation; preparation 2; printed as 4.220e-009 g/ml. As to conditions: Fc fusion.

Chain of Recombinant human TNF-alpha (human) (P01375 77-233): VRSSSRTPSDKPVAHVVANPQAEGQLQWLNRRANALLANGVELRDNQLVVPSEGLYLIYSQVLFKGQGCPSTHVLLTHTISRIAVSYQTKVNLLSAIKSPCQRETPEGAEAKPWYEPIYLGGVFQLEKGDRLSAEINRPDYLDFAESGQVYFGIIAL

For PEG20-etanercept (5 eq), the IC50 in assay [1] was 7.95 ng/mL; in assay [2], 4.22 ng/mL.

Usually IC50 stands for the concentration needed to halve the response being measured.
